Test results published in the supplement of paper PMC12764529.

Test: folding stability dG unfold (combined trypsin and chymotrypsin); higher = more stable
Experimental: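 Folding stability of de novo designed mini-proteins (<80 aa, no Cys; designed by TrROS, TrMRF, ProteinMPNN and the joint model) was measured by cDNA display proteolysis with trypsin and chymotrypsin. Each protease was used at 11 concentrations in a threefold dilution series plus a no-protease condition. K50 was inferred by Bayesian fitting of sequencing counts, and dG unfold was derived against a sequence-predicted unfolded-state K50 (Tsuboyama et al. method). Sequences shown include variable-length N-terminal GS-type padding (SAGGSAGG...) inside a display construct carrying a PA tag. Rows were kept only if the AF2 dimer inter-PAE was >15, to exclude likely homo-oligomers.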

Folding stability dG unfold, < -1 kcal/mol:
SAGGSAGGSAGLNVGDVVVEVEAGTEYEFLIPNPAKLVKVKVVPDPTTNELKVEEAKVYDLKSAGGSAGGSA [r18_222_TrMRF]
SAGGSAGGSAGMLYRALVPHPDGSFSTALSEDARELERELLEATGIPPENIKIEPIPLETSAGGSAGGSAGG [r17_169_TrMRF]
SAGGSAGGSAGMNKKVVATFTDPNSDTTTTLVGPEEAFKSQFPPETASYSLTTVPEEALLSAGGSAGGSAGG [r11_334_JUSTAS]
SAGGSAGGSAGMPFKITKVTPDGKITIYDGGNPITIPPGSDHIKIEFGGGTKEIKIPPGMSAGGSAGGSAGG [r11_647_TrROS]
SAGGSAGGSAGMTTYEGTDPEELREAVEAEAKARGVEIEITSVTTSPDGKYTLDVKVTPPSAGGSAGGSAGG [r11_304_JUSTAS]
SAGGSAGGSAGNIEVNGDRIKIRFEGGHEFTFPNLPPGKPIEFKFNNQPFRIRDVEVEPPSAGGSAGGSAGG [r11_16_TrROS]
SAGGSAGGSAGPDDFVTLTETIVEEIDPNLAELPPEVAERLVKEGVKVIEKVLTKVAPPSLLSAGGSAGGSA [r18_127_JUSTAS]
SAGGSAGGSAGPEVRPAPTPDGREVWVLRRTRRHPGPGDGVVVEEEVVPADDPEALRRRASAGGSAGGSAGG [r11_967_TrMRF]
SAGGSAGGSAGPKEPIYYRLRIEPPNGETREFEFPVGASVEDIAKEFNIPPGGRVELEPVSAGGSAGGSAGG [r11_340_TrROS]
SAGGSAGGSAGPKPVMWRIEFDNPDNGQKQEITIMIPPDDPEQAEEIAKKIGPNVKIEPVSAGGSAGGSAGG [r11_250_TrROS]
SAGGSAGGSAGPKWKTINFPIDLKPGQSAKEIAKKFAEANPDMEIDGFNPERGWASITVPSAGGSAGGSAGG [r11_465_TrROS]
SAGGSAGGSAGPPFEVVGVSRHGDSVTVLARNPDSDELVASTFTNGVIGSTAVIPSEEVGSAGGSAGGSAGG [r11_19_TrMRF]
SAGGSAGGSAGPPVPKLFKVKEVTYHPGPKTVTVKTENGETITVPPGVAENVPPGGYLAASAGGSAGGSAGG [r11_124_TrMRF]
SAGGSAGGSAGRMYIIRNPGKKVIIPRGWMPKLQKKNPNVEIEEFESPEDADKAQDKALDSAGGSAGGSAGG [r11_60_TrROS]
SAGGSAGGSAGSMTVLEEEEIELPDDVVLTRLKVPGEELIRIEIPEEGKEEIIPASEWPGSAGGSAGGSAGG [r17_286_JUSTAS]
SAGGSAGGSAGSMVLESEEPIPETGEPVLVKTTLSEEPGRERTIVTTYRDGKPLSTTVELSAGGSAGGSAGG [r11_631_JUSTAS]
SAGGSAGGSAGSPPDQTVTITTTVVTTETTTYPGTPGVTVPRTVVTTVPVTLPVTDPALLSAGGSAGGSAGG [r11_734_JUSTAS]
SAGGSAGGSAGSPSEVKYSEEVLEEPLPGGVPYRLVVRTRTVLEGDKVVEEEEETELVLLSAGGSAGGSAGG [r11_35_JUSTAS]
SAGGSAGGSAGTEISLPSSLPDRPIETVPVEIVSPGPGDPRRETINVTRTPDRVLAVDRRSAGGSAGGSAGG [r11_21_JUSTAS]
SAGGSAGGSAGTIRNPGMEFTIKKDPNDKVVVKMNDQERTIRVGKPIYFPGGMPFRIEPASAGGSAGGSAGG [r11_147_TrROS]
SAGGSAGGSAGVFWRIRMPGHTIPIPIEGDLNEAKDYIRDEMREHHGEPIDPDNIEIEIVSAGGSAGGSAGG [r11_1028_TrROS]
SAGGSAGGSAGVKPGQTIEVPGAKITVEEVDGKLVLKVEELPPPPAPEVEVKRYVSEEDLSAGGSAGGSAGG [r11_534_TrROS_Hall]
SAGGSAGGSAGWIKEALRDMPPGKPRRIPIRNPDGNPIKIRIKVDRDPENGKYEVPIEIVSAGGSAGGSAGG [r11_343_TrROS]
SAGGSAGGSAGYIMIKSPEMAEEMAKPGYEIEVEPVPPKDINNGDPNDTMYIIEIKPPGKSAGGSAGGSAGG [r11_168_TrROS]
SAGGSAGGSAINLADIHEVEVEEIPEDPTAVYRVRARLPEPGVPVDFLLVRFPDGSVRFYGSAGGSAGGSAG [r3_234_TrMRF]
SAGGSAGGSAKIKVEWEQHPEGYNLVKVEIPNPDNGKKKKVEGPFDSLEDAEDEAKELLKKSAGGSAGGSAG [r3_174_TrROS]
SAGGSAGGSAKKIEIDPERDPNGMHLVEVTRRDPGNGKKKDIPFNVNPGKMTPEEIKDLAKSAGGSAGGSAG [r3_127_TrROS]
SAGGSAGGSALLPLPEDAVLEVPFPGTEEEAEVFAAELAKAFPVGEITLEKEPTSYRLVVRSAGGSAGGSAG [r3_73_TrMRF]
SAGGSAGGSAMNPSEPYVTLTETVVEEAEEVVETFPGYGVYKYTETKLKTTVKVTTVPKSLLSAGGSAGGSA [r18_137_JUSTAS]
SAGGSAGGSAMPEEEKPPIVRTVVLQADGEPIVLTSKPDEEIKLPPSLANAVVLEEEVSPGLSAGGSAGGSA [r18_415_JUSTAS]
SAGGSAGGSAMPVVEIGLEMEPYEPEAGGKLMLVPIKDNLLPEHALAAARLLEPLGVVTAPSAGGSAGGSAG [r3_157_TrMRF]
SAGGSAGGSANFRILVDPPTNKIWIFDPPGYVYKIKVDPKEGKMKHEPVPIPPDDLPPNAFKSAGGSAGGSA [r18_59_TrROS]
SAGGSAGGSANLEAAKKLFKDYPPGEEREIPIRVRTPGKPVPFRIKIYYPEDGNMKIDIEPYSAGGSAGGSA [r18_493_TrROS]
SAGGSAGGSAPKLKFETEPYPNGGYYHKVKIDLEGPKIPITIPVNNNQPMPIEDFAKHILKKSAGGSAGGSA [r18_111_TrROS]
SAGGSAGGSAPMRMIPFRLPAPPGETIEIKFPNGKKHNISVEPHPDGWFHIMVNGGMIWIPASAGGSAGGSA [r18_372_TrROS]
SAGGSAGGSAPQRFNIVLEVKEPETGKTKVVKRTLSSEEEALKKIPEGLEVKKITVLPPDVPLSAGGSAGGS [r12_208_JUSTAS]
SAGGSAGGSARDALKNIKHVEIEHNPPNNRGTIRIQPPNGKQIKFEFDSPNELLKKAGIEPSAGGSAGGSAG [r3_36_TrROS]
SAGGSAGGSASEIDELLAAGYTVLVKPPDGSEKVIKPGDTASNLDETFNLSPDAEFVIEPKSAGGSAGGSAG [r3_216_JUSTAS]
SAGGSAGGSASMKIAKEVRTDPNSDVTYRVEVYRLPGPNVLLVETTYPEGVELSLVEVDPPSAGGSAGGSAG [r3_123_JUSTAS]
SAGGSAGGSATPTPGDDYVYLTEESPDGRTIRYPETGSTIYIPADVPVNLKVNPVRGPDGVPESAGGSAGGS [r20_105_JUSTAS]
SAGGSAGGSAVLRSALDRPVPVLLLTVPRDEVPEEEIRSLLPPELAEQFLKTAPKDSVIVASAGGSAGGSAG [r3_326_TrMRF]
SAGGSAGGSAYKLKDITMRRMPNGYHEVEIKVDNGKKIDVTIPPDNPGRSIEEFAKEVLDNSAGGSAGGSAG [r3_368_TrROS]
SAGGSAGGSFEVEPTPDHVSIRYYNPDGNPPVSATVDPPEGDIDFEHPDKKQEFPLKPGDTLISAGGSAGGS [r12_536_TrROS]
SAGGSAGGSGKKYMIDSPEAMNDMRDAGIPPKKIEPEPYPIPANDNPGFKDMPWPMTMYRVKVSAGGSAGGS [r12_78_TrROS]
SAGGSAGGSGSMNISPNVKKFTIKSTGTEEKAKEEAEKIKNSLPKNVPIEITFEPLDPKEFKKSAGGSAGGS [r12_744_JUSTAS]
SAGGSAGGSKLPDGPYKIRMPHNGRPYEMPIRVTSDGMIEVRMPGEGKKRTFPLNQAEIEPLDSAGGSAGGS [r12_782_TrROS]
SAGGSAGGSKMTVRIDEVHTHKHDGRRYLSVPLRFPDNGKPIDFHIPPDDLKNLKPGEEITIESAGGSAGGS [r12_382_TrROS]
SAGGSAGGSMPVTRPVATLPGPVTLYETTSPGERRLVRVTETPLPTPEPRTEVRLTVEVRPVGSAGGSAGGS [r12_353_JUSTAS]
SAGGSAGGSMVVTTTEFDLNGVKATLSIDDTGSATAKIPDPSYKEDVLKLIPSSFSLTSFDAESAGGSAGGS [r12_9_JUSTAS]
SAGGSAGGSNPDNNFPPRPKEPIKFPGEGMKIWVYKNHGHIFMEPPPGERQMGTIDPEDGKIVSAGGSAGGS [r12_420_TrROS]
SAGGSAGGSPGNIPINIKIEPYDPDGGEKRKRTIPFPFQDPEGARRHLNKIADEFPPGWRVEISAGGSAGGS [r20_211_TrROS]
SAGGSAGGSQKITIEWHKPGAWRIRIPGNGRERHLPMDKPLEEIANTAEKKFPNIPVEIERVKSAGGSAGGS [r12_423_TrROS]
SAGGSAGGSRTFRSPSGVRYTETSSVLETSPDPENGLWSTVTSSVVSVDPGPPAPPPPLSPALVSAGGSAGG [r6_939_JUSTAS]
SAGGSAGGSSEKEEKIRNIIKENFPENVIKKVEFNNDIVKIYGIPEYVKKAKEKLGSKNFIENSAGGSAGGS [r12_748_TrMRF]
SAGGSAGGSSQEIQKRIQDRLRPRGPNRKPTPLEFTPKNGTITIKWKNPWHRKALKELPGIEPSAGGSAGGS [r12_623_TrROS]
SAGGSAGGSTVPQSLPDSTATISSGPGGTWTVTFYPDEGSRTLTLPRSVVDASPVPLTELVSSSAGGSAGGS [r20_90_JUSTAS]
SAGGSAGGSVIEKDPDDTILLKLEIPEEGKESLVTLPKDEVEKVIEEKGVKKLTALKLGEPKPSAGGSAGGS [r12_294_JUSTAS]
